Assay [1] concerns the target calcium sensing receptor (UniProt Q9QY96). Kind of assay: cell-based or functional assay.
Assay [2] deals with GPR93 (UniProt Q149R9). The experiment in a line: cell-based or functional assay.
Chain of UniProt Q149R9 (Q149R9 whole entry): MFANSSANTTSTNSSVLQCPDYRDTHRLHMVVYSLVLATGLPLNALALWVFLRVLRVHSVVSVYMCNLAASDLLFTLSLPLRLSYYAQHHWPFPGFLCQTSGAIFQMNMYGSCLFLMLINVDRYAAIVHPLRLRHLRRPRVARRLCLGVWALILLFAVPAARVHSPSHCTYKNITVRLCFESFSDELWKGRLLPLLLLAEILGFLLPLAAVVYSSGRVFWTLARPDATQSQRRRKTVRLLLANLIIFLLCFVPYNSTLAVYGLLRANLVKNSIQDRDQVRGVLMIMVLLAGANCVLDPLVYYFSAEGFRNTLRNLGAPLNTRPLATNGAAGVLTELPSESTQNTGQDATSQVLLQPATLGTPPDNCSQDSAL

Chain of UniProt Q9QY96 (Q9QY96 20-1079 limits assumed): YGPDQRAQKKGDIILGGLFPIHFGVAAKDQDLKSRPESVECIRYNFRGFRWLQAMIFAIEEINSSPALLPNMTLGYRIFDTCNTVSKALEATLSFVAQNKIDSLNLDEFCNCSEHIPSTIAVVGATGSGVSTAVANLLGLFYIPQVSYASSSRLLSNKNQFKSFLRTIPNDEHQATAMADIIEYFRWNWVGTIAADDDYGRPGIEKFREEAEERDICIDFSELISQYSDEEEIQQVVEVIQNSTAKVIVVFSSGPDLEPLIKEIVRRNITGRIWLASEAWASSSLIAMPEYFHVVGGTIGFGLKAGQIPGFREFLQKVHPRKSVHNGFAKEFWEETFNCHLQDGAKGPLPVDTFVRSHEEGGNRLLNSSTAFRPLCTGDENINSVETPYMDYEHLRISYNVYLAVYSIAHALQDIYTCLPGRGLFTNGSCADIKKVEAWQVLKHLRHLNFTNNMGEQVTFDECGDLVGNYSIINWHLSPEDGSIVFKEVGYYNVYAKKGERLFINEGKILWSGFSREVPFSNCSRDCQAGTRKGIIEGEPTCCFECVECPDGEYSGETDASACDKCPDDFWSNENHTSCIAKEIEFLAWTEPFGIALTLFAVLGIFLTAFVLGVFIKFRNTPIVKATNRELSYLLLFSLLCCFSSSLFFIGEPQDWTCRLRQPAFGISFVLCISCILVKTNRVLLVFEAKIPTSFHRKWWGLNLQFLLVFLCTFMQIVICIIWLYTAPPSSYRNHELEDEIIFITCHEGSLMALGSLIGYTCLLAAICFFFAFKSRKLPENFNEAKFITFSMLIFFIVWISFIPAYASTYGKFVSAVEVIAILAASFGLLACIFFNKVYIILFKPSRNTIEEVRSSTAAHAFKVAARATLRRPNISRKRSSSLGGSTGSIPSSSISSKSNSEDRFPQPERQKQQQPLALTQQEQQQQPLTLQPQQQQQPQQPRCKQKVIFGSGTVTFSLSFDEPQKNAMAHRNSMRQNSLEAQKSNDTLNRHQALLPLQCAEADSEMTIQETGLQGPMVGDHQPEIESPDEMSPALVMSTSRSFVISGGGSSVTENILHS

For the substance “synthetic peptide SEQ ID NO: 5 90RYLGYLE96, derived from αs1-casein”, the CCK secretion by STC-1 cells (ELISA), peptide at 0.125 mM with NPS2143 at 6 µM (198 pM with vehicle) in assay [1] came out at 88 pM. In assay [2], this substance gave a CCK secretion by STC-1 cells (ELISA), peptide at 0.125 mM with TC LPA5 4 at 4 µM (198 pM with vehicle) of 111 pM.

The values are drawn from EP3916006A1.
